Data as given in PMC7387793, “Structural Basis and Evolution of Glycan Receptor Specificities within the Polyomavirus Family” (mBio, 2020).

What was measured:
GhPyV VP1 = target: T1, GhPyV VP1 (Goose hemorrhagic polyomavirus, UniProt A0A860PKB9); test: X-ray crystal structure (soak); assay type: binding; conditions: crystal soaked with 20 mM 2-O-Me-Neu5Ac, 17 h, MES/imidazole pH 6.5, 1.95 Å; BC2 loop site
T1 construct: truncated VP1, residues 21-286, E. coli BL21(DE3), His tag cut by thrombin (GSHM left), pentamer; site includes counterclockwise monomer

[1] = target: Chimpanzee polyomavirus (ChPyV) major capsid protein VP1, N- and C-terminally truncated, C154S (chimpanzee polyomavirus (ChPyV)); test: crystal structure; X-ray structures of truncated, assembly-incompetent VP1 pentamers, native and soaked with sialylated glycans; solved by molecular replacement with 5-fold NCS restraints
[2] = target: Finch polyomavirus (FiPyV) major capsid protein VP1, amino acids 22 to 291, C78S C92S (finch polyomavirus (FiPyV)); test: as above
[3] = target: Goose hemorrhagic polyomavirus (GhPyV) major capsid protein VP1, amino acids 21 to 286 (goose hemorrhagic polyomavirus (GhPyV)); test: as above
[4] = target: Human polyomavirus 12 (HPyV12) major capsid protein VP1, amino acids 27 to 299 (human polyomavirus 12 (HPyV12)); test: as above
[5] = target: New Jersey polyomavirus (NJPyV) major capsid protein VP1, amino acids 36 to 323 (New Jersey polyomavirus-2013 (NJPyV)); test: as above
[6] = target: Sheep polyomavirus (ShPyV) major capsid protein VP1, amino acids 20 to 285, C95S (sheep polyomavirus (ShPyV)); test: as above

CO[C@]1(C(=O)O)C[C@H](O)[C@@H](NC(C)=O)[C@H]([C@H](O)[C@H](O)CO)O1 [2-O-Me-Neu5Ac]
X-ray crystal structure (soak) (GhPyV VP1): GhPyV VP1 with 2-O-Me-Neu5Ac

Chimpanzee polyomavirus (ChPyV) major capsid protein VP1, N- and C-terminally truncated, C154S (domain or fragment)
stoichiometry N [1]: 5

Finch polyomavirus (FiPyV) major capsid protein VP1, amino acids 22 to 291, C78S C92S (domain or fragment)
stoichiometry N [2]: 5

Goose hemorrhagic polyomavirus (GhPyV) major capsid protein VP1, amino acids 21 to 286 (domain or fragment)
stoichiometry N [3]: 5

Human polyomavirus 12 (HPyV12) major capsid protein VP1, amino acids 27 to 299 (domain or fragment)
stoichiometry N [4]: 5

New Jersey polyomavirus (NJPyV) major capsid protein VP1, amino acids 36 to 323 (domain or fragment)
stoichiometry N [5]: 5

Sheep polyomavirus (ShPyV) major capsid protein VP1, amino acids 20 to 285, C95S (domain or fragment)
stoichiometry N [6]: 5
